Data on one substance can be found in patent publication US20110287023A1.

This test concerns the target HMG1 purified from calf (bovine) thymus (bovine) (UniProt P10103). The experiment in a line: cell-based or functional assay.

Sequence of HMG1 purified from calf (bovine) thymus (bovine) (P10103 2-215 limits assumed): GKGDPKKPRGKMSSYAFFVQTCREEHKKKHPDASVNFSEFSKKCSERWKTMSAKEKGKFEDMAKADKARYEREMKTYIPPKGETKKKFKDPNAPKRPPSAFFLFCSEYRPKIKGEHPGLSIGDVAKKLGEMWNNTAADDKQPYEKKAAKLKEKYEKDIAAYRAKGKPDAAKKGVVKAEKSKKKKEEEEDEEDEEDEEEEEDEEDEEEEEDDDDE

As for “RAGE-Fc fusion protein (species not stated)”, the IFN-α release (HMGB/CpG-A mediated enhanced TLR9 signaling) was more than 95%.
